Values joined by “and” are separate entries in the source; they are usually repeats but may differ in a detail not shown here. Identical values can stand only once.
What was measured:
Galectin-3 [1] = target: T1, Galectin-3 (UniProt P17931 1-250, limits assumed); assay: BLI; after 4 C for 1 month
T1 construct: Target of the anti-Gal3 antibody TB006; also called Gal3; GAL3

Galectin-3 [2] = target: T1, Galectin-3; assay: BLI; after 25 C for 1 month
Galectin-3 [3] = target: T1, Galectin-3; assay: BLI; after 4 C for 3 months
Galectin-3 [4] = target: T1, Galectin-3; assay: BLI; after 4 C for 9 months
Galectin-3 [5] = target: T1, Galectin-3; assay: BLI; after 25 C for 6 months
Galectin-3 [6] = target: T1, Galectin-3; assay: BLI; after -80 C for 6 months
Galectin-3 [7] = target: T1, Galectin-3; assay: BLI; after -80 C for 12 months
Galectin-3 [8] = target: T1, Galectin-3; assay: BLI; after -80 C for 18 months
Galectin-3 [9] = target: T1, Galectin-3; assay: BLI; after pipetting (shear stress)
Galectin-3 [10] = target: T1, Galectin-3; assay: BLI; after 5 freeze/thaws, 25% vol. of container
Galectin-3 [11] = target: T1, Galectin-3; assay: BLI; after 5 freeze/thaws, 75% vol. of container
Galectin-3 [12] = target: T1, Galectin-3; assay: ELISA (Biological Activity); long-term stability 5 C, 1 month
Galectin-3 [13] = target: T1, Galectin-3; assay: BLI (Binding Activity); accelerated stability 25 C/60% RH, 1 month
Galectin-3 [14] = target: T1, Galectin-3; assay: BLI (Binding Activity); accelerated stability 25 C/60% RH, 3 months
Galectin-3 [15] = target: T1, Galectin-3; assay: ELISA blocking assay; TB006 diluted to 0.31 mg/mL in 0.9% NaCl, 25 C, 0 h; blocked partner not named
Galectin-3 [16] = target: T1, Galectin-3; assay: ELISA blocking assay; TB006 diluted to 0.31 mg/mL in 0.9% NaCl, 25 C, 0.5 h; blocked partner not named
Galectin-3 (Gal3) [17] = target: T2, Galectin-3 (Gal3) (UniProt P17931 1-250, limits assumed); assay: BLI; 50 mg/mL DS after 5 freeze/thaws
T2 construct: Target of TB006

Galectin-3 (Gal3) [18] = target: T2, Galectin-3 (Gal3); assay: BLI; 20 mg/mL DS after 4 C for 1 month
Galectin-3 (Gal3) [19] = target: T2, Galectin-3 (Gal3); assay: BLI; 50 mg/mL DS after 40 C for 7 days
Galectin-3 (Gal3) [20] = target: T2, Galectin-3 (Gal3); assay: BLI; 20 mg/mL DS after 25 C for 14 days
Summary of the method: (§1)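 Each sample was taken either at time zero or after a stress step: shear from agitation, repeated freeze-thaw cycles, or storage at set temperatures, among them 40° C and cryogenic storage. The dissociation constant (Kd) for Galectin-3 binding came from biolayer interferometry.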

Galectin-3 (Gal3) [21] = target: T2, Galectin-3 (Gal3); assay: BLI; 20 mg/mL DS after 4 C for 6 months
Galectin-3 (Gal3) [22] = target: T2, Galectin-3 (Gal3); assay: BLI; 20 mg/mL DS after 40 C for 14 days
Galectin-3 (Gal3) [23] = target: T2, Galectin-3 (Gal3); assay: BLI; 20 mg/mL DS after 40 C for 21 days
Summary of the method: as §1

Galectin-3 (Gal3) [24] = target: T2, Galectin-3 (Gal3); assay: BLI; 20 mg/mL DS after 40 C for 28 days
Galectin-3 (Gal3) [25] = target: T2, Galectin-3 (Gal3); assay: BLI; 50 mg/mL DS after 4 C for 3 months
Galectin-3 (Gal3) [26] = target: T2, Galectin-3 (Gal3); assay: BLI; 20 mg/mL DS after -80 C for 1 month
Summary of the method: as §1

Galectin-3 (Gal3) [27] = target: T2, Galectin-3 (Gal3); assay: BLI; 20 mg/mL DS after 4 C for 12 months
Summary of the method: as §1

Galectin-3 (Gal3) [28] = target: T2, Galectin-3 (Gal3); assay: BLI; 50 mg/mL DS after -80 C for 1 month
Galectin-3 (Gal3) [29] = target: T2, Galectin-3 (Gal3); assay: BLI; 50 mg/mL DS after 25 C for 6 months
Galectin-3 (Gal3) [30] = target: T2, Galectin-3 (Gal3); assay: BLI; 50 mg/mL DS after -80 C for 3 months
Galectin-3 (Gal3) [31] = target: T2, Galectin-3 (Gal3); assay: BLI; 20 mg/mL DS after agitation for 1 day
Summary of the method: as §1

Galectin-3 (Gal3) [32] = target: T2, Galectin-3 (Gal3); assay: BLI; 50 mg/mL DS after agitation for 3 days

T1 sequence (P17931 whole entry): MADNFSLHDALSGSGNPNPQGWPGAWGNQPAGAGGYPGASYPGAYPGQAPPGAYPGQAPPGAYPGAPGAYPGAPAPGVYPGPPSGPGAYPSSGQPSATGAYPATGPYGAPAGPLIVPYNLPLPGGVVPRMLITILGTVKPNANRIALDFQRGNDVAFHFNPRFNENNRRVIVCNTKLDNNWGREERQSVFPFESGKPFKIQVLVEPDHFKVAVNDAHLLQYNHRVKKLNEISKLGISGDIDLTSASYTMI
T2 sequence (P17931 whole entry): as above

B1: TB006 (antibody, human IgG4 S228P, kappa, V domains shown)
VH: QVQLVQSGAEVKKPGASVKVSCKASGYSFTNYYMHWVRQAPGQRLEWMGWIYPGSGNTNYNEKFQGRVTITADTSASTAYMELSSLRSEDTAVYYCSTAPGGFDVWGQGTTVTVSS
VL: DIVMTQTPLSLSVTPGQPASISCKSSKSLLHSDGITYLYWYLQKPGQSPQLLIYRMSNLASGVPDRFSGSGSGTDFTLKISRVEAEDVGVYYCAQMLEFPLTFGQGTKLEIKR
notes: Tested as formulated drug substance or drug product in 20 mM L-histidine, 5 mM methionine, 100 mM NaCl, 0.02% polysorbate 80, pH 5.8, or diluted in 0.9% saline; also called 4A11.H3L1; IMT006a
B1 gave a Kd (Galectin-3 [1]) of 3.3 nM, a Kd (Galectin-3 [2]) of 3.1 nM and a Kd (Galectin-3 [3]) of 3.3 nM. It also gave a Kd (Galectin-3 [4]) of 2.2 nM, a Kd (Galectin-3 [5]) of 2.6 nM and a Kd (Galectin-3 [6]) of 2.8 nM. It also gave a Kd (Galectin-3 [7]) of 3 nM, a Kd (Galectin-3 [8]) of 2 nM and a Kd (Galectin-3 [9]) of 2.8 nM. It also gave a Kd (Galectin-3 [10]) of 2.9 nM, a Kd (Galectin-3 [11]) of 2.9 nM and an IC50 (Galectin-3 [12]) of 1.8 µg/mL. It also gave a Kd (Galectin-3 [13]) of 2.5 nM, a Kd (Galectin-3 [14]) of 3.1 nM and an IC50 (Galectin-3 [15]) of 1.05 µg/mL. The IC50 (Galectin-3 [16]) was 1.66 µg/mL and 1.34 µg/mL.

B2: TB006 (antibody, human IgG4 S228P, kappa, V domains shown)
VH: QVQLVQSGAEVKKPGASVKVSCKASGYSFTNYYMHWVRQAPGQRLEWMGWIYPGSGNTNYNEKFQGRVTITADTSASTAYMELSSLRSEDTAVYYCSTAPGGFDVWGQGTTVTVSS
VL: DIVMTQTPLSLSVTPGQPASISCKSSKSLLHSDGITYLYWYLQKPGQSPQLLIYRMSNLASGVPDRFSGSGSGTDFTLKISRVEAEDVGVYYCAQMLEFPLTFGQGTKLEIKR
notes: Full antibody tested as drug substance (DS) in 20 mM L-histidine, 5 mM methionine, 100 mM NaCl, 0.02% polysorbate-80, pH 5.8; also called 4A11.H3L1; IMT006a
In the case of B2, the Kd (Galectin-3 (Gal3) [17]) is reported as 2.6 nM, the Kd (Galectin-3 (Gal3) [18]) is reported as 3.7 nM and the Kd (Galectin-3 (Gal3) [19]) is reported as 2.7 nM. For the same binder, the Kd (Galectin-3 (Gal3) [20]) was 2.7 nM, the Kd (Galectin-3 (Gal3) [21]) was 3.3 nM and the Kd (Galectin-3 (Gal3) [22]) was 2.9 nM. It also gave a Kd (Galectin-3 (Gal3) [23]) of 2.6 nM, a Kd (Galectin-3 (Gal3) [24]) of 3.8 nM and a Kd (Galectin-3 (Gal3) [25]) of 2.3 nM. The Kd (Galectin-3 (Gal3) [26]) was 3.6 nM, the Kd (Galectin-3 (Gal3) [27]) was 2.7 nM and the Kd (Galectin-3 (Gal3) [28]) was 2.3 nM. For the same binder, the Kd (Galectin-3 (Gal3) [29]) was 2.4 nM, the Kd (Galectin-3 (Gal3) [30]) was 2.5 nM and the Kd (Galectin-3 (Gal3) [31]) was 3.1 nM. The Kd (Galectin-3 (Gal3) [32]) was 3.7 nM.

Source: patent US20240158512A1 (TRUEBINDING, published 2024)
